These results are taken from PMC5438047 (Nature chemical biology, 2017).

In data set [1] the target is T1, human O-GlcNAc hydrolase (hOGA) (Homo sapiens, UniProt O60502, DEL397-534).
T1 sequence (O60502 11-396): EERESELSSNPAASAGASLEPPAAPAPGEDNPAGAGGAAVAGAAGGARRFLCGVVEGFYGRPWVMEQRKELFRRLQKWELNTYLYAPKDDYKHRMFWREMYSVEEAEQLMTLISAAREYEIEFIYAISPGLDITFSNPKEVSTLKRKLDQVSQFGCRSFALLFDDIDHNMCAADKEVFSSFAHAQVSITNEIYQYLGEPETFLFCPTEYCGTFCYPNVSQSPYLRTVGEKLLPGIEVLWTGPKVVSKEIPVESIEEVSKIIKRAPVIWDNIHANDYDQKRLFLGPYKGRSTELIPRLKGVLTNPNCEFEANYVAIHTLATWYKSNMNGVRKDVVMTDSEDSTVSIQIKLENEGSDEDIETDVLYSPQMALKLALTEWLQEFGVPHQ
T1 sequence (O60502 535-715): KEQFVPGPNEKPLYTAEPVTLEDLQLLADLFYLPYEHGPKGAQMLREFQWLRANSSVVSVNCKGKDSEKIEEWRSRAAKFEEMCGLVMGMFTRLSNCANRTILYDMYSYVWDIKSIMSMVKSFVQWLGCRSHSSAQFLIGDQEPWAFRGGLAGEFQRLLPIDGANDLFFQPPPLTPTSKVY
In words: X-ray crystal structure. The class given is biochemical. As to conditions: cited from earlier work.

Data set [2] concerns CC(=O)N[C@H]1[C@H](Oc2ccc([N+](=O)[O-])cc2)O[C@H](CO)[C@@H](O)[C@@H]1O. In words: purified protein.
The data set “SEC-MALS” concerns the molecule itself. In words: SEC-MALS. A general note: Size exclusion chromatography separates by hydrodynamic size, large species first.

What is called Ki is the equilibrium dissociation constant of an inhibitor or competing ligand from its target. For PUGNAc-imidazole, the Ki in data set [1] was 3.9 µM. By Km is commonly meant the substrate concentration at which the rate is half of its maximum. In the case of “human O-GlcNAc hydrolase (hOGA) (Homo sapiens; DEL397-534)”, the Km in data set [2] is recorded as 40.93 µM.

B1: hOGA Split1 (co-expressed fragments 11-396 and 535-715) (complex, human)
chain 1: EERESELSSNPAASAGASLEPPAAPAPGEDNPAGAGGAAVAGAAGGARRFLCGVVEGFYGRPWVMEQRKELFRRLQKWELNTYLYAPKDDYKHRMFWREMYSVEEAEQLMTLISAAREYEIEFIYAISPGLDITFSNPKEVSTLKRKLDQVSQFGCRSFALLFDDIDHNMCAADKEVFSSFAHAQVSITNEIYQYLGEPETFLFCPTEYCGTFCYPNVSQSPYLRTVGEKLLPGIEVLWTGPKVVSKEIPVESIEEVSKIIKRAPVIWDNIHANDYDQKRLFLGPYKGRSTELIPRLKGVLTNPNCEFEANYVAIHTLATWYKSNMNGVRKDVVMTDSEDSTVSIQIKLENEGSDEDIETDVLYSPQMALKLALTEWLQEFGVPHQ
chain 2: KEQFVPGPNEKPLYTAEPVTLEDLQLLADLFYLPYEHGPKGAQMLREFQWLRANSSVVSVNCKGKDSEKIEEWRSRAAKFEEMCGLVMGMFTRLSNCANRTILYDMYSYVWDIKSIMSMVKSFVQWLGCRSHSSAQFLIGDQEPWAFRGGLAGEFQRLLPIDGANDLFFQPPPLTPTSKVY
The stoichiometry N is a count of units in the complex or per binding partner. Take B1: the “stoichiometry N” value in the data set “SEC-MALS” is 2.

B2: near full-length hOGA (His(6)9-916) (enzyme, human, UniProt O60502 9-916, looked up)
chain: TLEERESELSSNPAASAGASLEPPAAPAPGEDNPAGAGGAAVAGAAGGARRFLCGVVEGFYGRPWVMEQRKELFRRLQKWELNTYLYAPKDDYKHRMFWREMYSVEEAEQLMTLISAAREYEIEFIYAISPGLDITFSNPKEVSTLKRKLDQVSQFGCRSFALLFDDIDHNMCAADKEVFSSFAHAQVSITNEIYQYLGEPETFLFCPTEYCGTFCYPNVSQSPYLRTVGEKLLPGIEVLWTGPKVVSKEIPVESIEEVSKIIKRAPVIWDNIHANDYDQKRLFLGPYKGRSTELIPRLKGVLTNPNCEFEANYVAIHTLATWYKSNMNGVRKDVVMTDSEDSTVSIQIKLENEGSDEDIETDVLYSPQMALKLALTEWLQEFGVPHQYSSRQVAHSGAKASVVDGTPLVAAPSLNATTVVTTVYQEPIMSQGAALSGEPTTLTKEEEKKQPDEEPMDMVVEKQEETDHKNDNQILSEIVEAKMAEELKPMDTDKESIAESKSPEMSMQEDCISDIAPMQTDEQTNKEQFVPGPNEKPLYTAEPVTLEDLQLLADLFYLPYEHGPKGAQMLREFQWLRANSSVVSVNCKGKDSEKIEEWRSRAAKFEEMCGLVMGMFTRLSNCANRTILYDMYSYVWDIKSIMSMVKSFVQWLGCRSHSSAQFLIGDQEPWAFRGGLAGEFQRLLPIDGANDLFFQPPPLTPTSKVYTIRPYFPKDEASVYKICREMYDDGVGLPFQSQPDLIGDKLVGGLLSLSLDYCFVLEDEDGICGYALGTVDVTPFIKKCKISWIPFMQEKYTKPNGDKELSEAEKIMLSFHEEQEVLPETFLANFPSLIKMDIHKKVTDPSVAKSMMACLLSSLKANGSRGAFCEVRPDDKRILEFYSKLGCFEIAKMEGFPKDVVILGRSL
On to B2, for which the “stoichiometry N” value in “SEC-MALS” was 2.
